Data taken from article PMC2872106.

How the values were obtained:
κI O18/O8 Y87H (human) [1] = experiment: AUC
κI O18/O8 Y87H (human) [2] = experiment: NMR titration

Substance κI O18/O8 Y87H (domain or fragment) has a Kd (κI O18/O8 Y87H (human) [1]) of 420 µM and a Kd (κI O18/O8 Y87H (human) [2]) of 347 µM.
